From US20180263927A1 come the findings set out here.

The assay concerns the target PSA (prostate specific antigen) (UniProt P07288). Nature of the assay: cell-based or functional assay.
Sequence of UniProt P07288 (P07288 25-261 limits assumed): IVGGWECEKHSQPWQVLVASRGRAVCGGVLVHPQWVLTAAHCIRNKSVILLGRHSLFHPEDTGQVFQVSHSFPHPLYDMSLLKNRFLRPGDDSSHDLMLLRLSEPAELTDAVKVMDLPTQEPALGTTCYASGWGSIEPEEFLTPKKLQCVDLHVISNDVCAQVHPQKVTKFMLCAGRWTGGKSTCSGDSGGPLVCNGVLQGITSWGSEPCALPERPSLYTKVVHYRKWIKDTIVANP

With “Analog 221 (211/amide or nonester) Mu-His-Ser-Ser-Lys(Fmoc)-Leu-Gln-Leu (peptide)”, the cytotoxicity IC50, 48 hour exposure, Prostate DuPro cells (trace PSA) is 13 µM; the cytotoxicity IC50, 48 hour exposure, Prostate LnCAP cells (positive PSA) was 0.8 µM; the cytotoxicity IC50, 48 hour exposure, Prostate PC3 cells (negative PSA, control) is > 21 µM.
